Data reported in article PMC9452904.
pKd: −log10 of the molar value.

What was measured:
[1] = molecular target: ribosome-nascent chain complex with the HA-tagged GatY(1-153) nascent chain on the TMR-labeled Halo-S2 ribosome (E. coli | not stated) (UniProt P0C8J6); assay: single-molecule total internal reflection fluorescence microscopy (TIRFM); RNCs held on a PEG/biotin-PEG slide through neutravidin and anti-HA biotin; 50 nM Alexa647-labeled TF, 50 nM TMR-labeled Halo-S2 ribosome; 10 frames/s for 150 s; residence times fitted
[2] = molecular target: ribosome-nascent chain complex with the HA-tagged GatY(1-284) nascent chain on the TMR-labeled Halo-S2 ribosome (E. coli | not stated) (UniProt P0C8J6); assay: as above
[3] = molecular target: Trigger factor (Escherichia coli) (UniProt P0A850); details: cited from earlier work
vacant ribosome = assay: fluorescence correlation spectroscopy (FCS); 100 nM Alexa488-labeled TF with increasing ribosome concentrations in HKM buffer (25 mM Hepes-KOH pH 7.4, 100 mM KCl, 5 mM MgCl2); ratio of ribosome-bound TF from a two-component fit, Kd from a quadratic fit
[4] = molecular target: ribosome-nascent chain complex with the HA-tagged GatY(1-153) nascent chain (E. coli) (UniProt P0C8J6); assay: fluorescence correlation spectroscopy (FCS); endpoint: ~2 ug truncated mRNA and 100 nM labeled TF in PUREfrex solution, 5-15 min at 37 C, then measured; two-component fit with the fast component fixed to free TF
[5] = molecular target: ribosome-nascent chain complex with the HA-tagged GatY(1-284) nascent chain (E. coli) (UniProt P0C8J6); assay: as above

Alexa647-labeled TF-R14C (from UniProt P0A850 1-432) (natural protein)
half-life of the residence time (fast component) [1]: 2.7 s | half-life of the residence time (slow fraction) [2]: 9.8 s

Trigger factor (from UniProt P0A850)
pKd [3]: 5.82

Alexa488-labeled trigger factor TF-R14C (from UniProt P0A850 1-432) (natural protein)
pKd (vacant ribosome): 5.65 | percent of TF in the slow component [4]: 90% | percent of TF in the slow component [5]: 90%
